Consider 1 molecule from patent US20130243764A1 (published 2013).

Test [1] addresses TNF alpha (species not given). Description: cell-based or functional assay.
The target in test [2] is TNF alpha (species not given). The test is described as follows: cell-based or functional assay. The source holds these as a separate data set.

B1: BPC1500 (antibody, V domains shown)
VH: EVQLVESGGGLVQPGRSLRLSCAASGFTFDDHALHWVRQAPGKGLEWVSAITWNSGHIDYADSVEGRFTISRDNAKNSLYLQMNSLRAEDTAVYYCAKVRYLSTASSLDYWGQGTLVTVSS
VL: not shown
For the molecule B1, in test [1], the “IC50 value, L929 neutralisation assay (cell viability)” value worked out at 0.13 µg/mL. Besides, the “IC50 value, TNFα-induced IL-6 release assay (whole blood)” value in test [2] turned out to be 110 pM.
